Results on seven molecules are retold here after US20220119501A1 (INVISISHIELD TECHNOLOGIES, published 2022).

Assay [1] has as its target T1, S1 subunit polypeptide of SARS-CoV-2 spike protein (isolate 2019-nCoV, WIV4) (SARS-CoV-2 (isolate 2019-nCoV, WIV4), UniProt P0DTC2 16-685). As to the kind of experiment: phage ELISA on SARS-CoV-2 spike S1 (FIG. 1).
In assay [2] the target is T1, S1 subunit polypeptide of SARS-CoV-2 ….

B1: anti-S1 (SARS-CoV-2) scFv clone #13 (scFv)
scFv: QSVLTQPPSASGTPGQRVTISCSGSSSNIGSNYVYWYQQLPGTAPKLLIYRNNQRPSGVPDRFSGSKSGTSASLAISGLRSEDEADYYCAAWDDSLSGPNYVFGTGTKVTVLGSRGGGGSGGGGSGGGGSLEMAQVQLVQSGAEVKKPGSSVKVSCKASGGTFSSYAISWVRQAPGQGLEWMGWISGYNGNTNYAQKLQGRVTMTTDTSTSTAYMELRSLRSDDTAVYYCARTGWSKGEKVTTWGEWFYVDYWGQGTLVTVSSTSGQAGQ
notes: also called phage clone #13
Consider B1, for which, in assay [1], the binding result was “binds”.

B2: anti-S1 (SARS-CoV-2) scFv clone #20 (scFv)
scFv: SYVLTQPPSASGTPGQRVTISCSGSSSNIGSNTVNWYQQLPGTAPKLLIYSNNQRPSGVPDRFSASKSGTSASLAISGFQSEDEADYYCAAWDDSLDGYVFGTGTKVTVLGSRGGGGSGGGGSGGGGSLEMAEVQLVQSGAEVKKPGESLKISCKGSGYSFPSYWIGWVRQMPGKGLEWMGIIYPGDSDTRYSPSFQGQVTISADKSISTAYLQWSSLKASDTAMYYCARGSYTYMGGSYDYWGQGTLVTVSSTSGQAGQ
notes: also called phage clone #20
As to B2, in assay [1], the binding result is on record as “binds”.

B3: anti-S1 (SARS-CoV-2) scFv clone #19 (scFv)
scFv: QSALTQPASVSGSPGQSITISCTGTSSDVGGYNYVSWYQQHPGKVPKLMIYEVSNRPSGVSNRFSGSKSGNTASLTISGLQAEDEADYYCSSYTSGDTLVFGGGTKVTVLGSRGGGGSGGGGSGGGGSLEMAELQLVESGGGVVQPGRSPRLSCAASGFTFSNYPMHWVRQAPGKGLEWVAVISYDGNHKYYADSLEGRFSISRDNSKNTLYLQMNSLTAADTAVYYCARGGGMGGLDSWGQGTLVTVSSTSGQAGQ
notes: also called phage clone #19
As for B3, the binding result in assay [1] is on record as “binds”.

B4: anti-S1 (SARS-CoV-2) scFv clone #26 (scFv)
scFv: QAVLTQAPSASGTLGQQVTISCSGTTSNIGRNTVNWYQHLPGTAPKLLIFVSNQRPSGVPDRFSGSKSGTSASLVISGLQSEDEADYYCGAWDDSLDGMLFGGGTKLTVLGSRGGGGSGGGGSGGGGSLEMAQVQLVQSGAEVKKPGASVKVSCKASGYTFTSYGISWVRQAPGQGLEWMGWISAYNGNTNYAQKLQGRVTMTTDTSTSTAYMELRSLRSDDTAVYYCARGYYGDLDPWGQGTLVTVSSTSGQAGQ
Molecule B4 yielded an IC50 in assay [2] of 1.33 nM.

B5: anti-S1 (SARS-CoV-2) scFv clone #15 (scFv)
scFv: QSVLTQPPSVSEAPRQRVTISCSGSSSNIGNNAVNWYQQLPGKAPKLLIYFNDVQSSGVSDRFSGSKSGTSASLAISGLQSEDEADYYCAAWDDSLNAVLFGGGTKLTVLGSRGGGGSGGGGSGGGGSLEMAEVQLVQSGAEVKKPGASVKVSCKASGYTFTGYYMHWVRQAPGQGLEWMGRINPNSGGTDYARKFRGRVTMTRDTSISTAYMELSRLTSDDTAMYYCARGYGDDWGQGTLVTVSSTSGQAGQ
notes: also called phage clone #15
B5: the binding result in assay [1] was “binds”.

B6: anti-S1 (SARS-CoV-2) scFv clone #30 (scFv)
scFv: QSALTQPPSASGSPGQSVTISCTGTSSDVGGYDYVSWYQQHPGKAPKLMIYEVSKRPSGVSNRFSGSKSGNTASLTISGLQAEDEADYYCSSYTSSSTFPYVFGTGTKVTVLGSRGGGGSGGGGSGGGGSLEMAEVQLVESGGGLEQPGGSLRLSCAASGFTFSSYAMSWVRQAPGKGLEWVSAISASGNSTFYADSVKGRFTISRDNSKHTLDLQMNSLRADDTAVYYCARNSDVWGQGTLVTVSSTSGQAGQ
notes: also called phage clone #30
On to B6, for which, in assay [1], the binding result is recorded as “binds”.

B7: anti-S1 (SARS-CoV-2) scFv clone #09 (scFv)
scFv: NFMLTQPHSVSESPGKTVSISCTGSSGSIASNYVQWYQQRPGSAPTTVIYEDKERPSGVPNRFSGSIDRSSNSASLTISGLKTEDEADYYCQSYDDGNVVFGGGTKLTVLGSRGGGGSGGGGSGGGGSLEMAEVQLVESGAEVKKPGASVKVSCKASGYTFTSYGISWVRQAPGQGLEWMGWISAYNGNTNYAQKFQDRVTLTTDTSTNTAYMLLRSLRSDDTAVYYCARTWYSYHYDIWGQGTLVTVSSTSGQAGQ
notes: also called phage clone #09
Consider B7, for which the binding result in assay [1] is recorded as “binds”.

One may read the IC50 as the concentration needed to halve the response being measured.
